In the assay the target is cynomolgus monkey FGF19 (cynomolgus monkey). In words: SPR. For orientation: In SPR one partner is held on a chip, and binding of the other changes the refractive index at the surface.
cynomolgus monkey FGF19 (cynomolgus monkey), sequence (chain, as listed by the source): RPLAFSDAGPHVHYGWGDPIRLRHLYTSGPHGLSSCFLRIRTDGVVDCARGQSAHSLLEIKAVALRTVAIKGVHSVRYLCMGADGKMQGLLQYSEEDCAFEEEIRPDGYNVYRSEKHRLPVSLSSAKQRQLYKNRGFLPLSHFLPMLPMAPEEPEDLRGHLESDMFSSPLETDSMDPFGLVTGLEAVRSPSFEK

B1: G1A8 (anti-FGF19 human IgG1 antibody, affinity-improved from 31A3) (antibody, V domains shown)
VH: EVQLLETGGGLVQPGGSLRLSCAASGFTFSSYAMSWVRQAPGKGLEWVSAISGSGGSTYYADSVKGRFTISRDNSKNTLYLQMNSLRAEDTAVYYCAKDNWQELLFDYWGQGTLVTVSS
VL: QAGLTQPASVSGSPGQSITISCTGTSSDVGGYNYVSWYQQHPGKAPKLMIYDVSNRPSGVSDRFSGSKSGNTASLTISGLQTEDEADYYCSSWTRSSGLVFGGGTQLTVLG
As for B1, the Kd (commonly the free concentration of one partner at which half of the binding sites on the other are occupied at equilibrium, for simple one-to-one binding) is 1.63 nM.

Source of the values: patent publication US20220041706A1 (published 2022).
